One series has as its target T1, NPR3 (Arabidopsis thaliana, UniProt Q8L746).
T1 sequence (Q8L746 1-586): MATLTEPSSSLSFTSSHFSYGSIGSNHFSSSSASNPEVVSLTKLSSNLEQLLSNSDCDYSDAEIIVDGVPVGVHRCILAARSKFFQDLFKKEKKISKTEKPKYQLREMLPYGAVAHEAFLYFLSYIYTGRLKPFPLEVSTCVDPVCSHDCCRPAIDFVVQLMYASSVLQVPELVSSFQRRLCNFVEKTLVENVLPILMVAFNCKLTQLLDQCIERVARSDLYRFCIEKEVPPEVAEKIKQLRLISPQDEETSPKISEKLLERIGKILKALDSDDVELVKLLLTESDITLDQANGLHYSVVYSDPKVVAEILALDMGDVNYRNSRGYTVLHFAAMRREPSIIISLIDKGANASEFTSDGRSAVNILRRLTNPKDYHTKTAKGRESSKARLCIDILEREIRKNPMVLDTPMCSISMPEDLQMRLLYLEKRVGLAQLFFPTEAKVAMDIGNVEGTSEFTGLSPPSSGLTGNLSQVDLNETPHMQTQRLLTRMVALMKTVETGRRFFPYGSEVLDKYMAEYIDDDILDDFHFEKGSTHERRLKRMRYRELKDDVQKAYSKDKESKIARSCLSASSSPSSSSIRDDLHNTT
Briefly: [3H]-SA binding.

The target in the next series is T2, His-MBP-NPR1 (Arabidopsis thaliana, UniProt P93002 1-593).
T2 sequence: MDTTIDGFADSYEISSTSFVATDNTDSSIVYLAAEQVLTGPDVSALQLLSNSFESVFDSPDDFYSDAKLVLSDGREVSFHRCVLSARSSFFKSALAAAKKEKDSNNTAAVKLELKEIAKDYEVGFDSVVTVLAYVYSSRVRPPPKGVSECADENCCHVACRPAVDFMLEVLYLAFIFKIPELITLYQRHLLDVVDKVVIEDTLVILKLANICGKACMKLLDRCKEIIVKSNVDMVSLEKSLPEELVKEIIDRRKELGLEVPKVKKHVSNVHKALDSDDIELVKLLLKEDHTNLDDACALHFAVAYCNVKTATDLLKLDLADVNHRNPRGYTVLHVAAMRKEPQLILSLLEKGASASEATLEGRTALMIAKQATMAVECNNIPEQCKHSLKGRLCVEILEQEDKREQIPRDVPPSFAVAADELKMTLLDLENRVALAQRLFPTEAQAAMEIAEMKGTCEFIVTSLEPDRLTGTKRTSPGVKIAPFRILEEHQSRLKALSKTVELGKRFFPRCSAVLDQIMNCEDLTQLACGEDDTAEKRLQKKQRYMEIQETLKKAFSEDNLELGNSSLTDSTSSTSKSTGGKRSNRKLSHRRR
The series can be described thus: pull-down.

The series “SEC” deals with the molecule itself. The series can be described thus: SEC.

As usually defined, the Kd is the constant that tells how readily two partners part at equilibrium. High values mean a looser complex, low ones a tighter complex. In the case of `O=C(O)c1ccccc1O` [SA, Salicylic acid], the Kd at NPR3 came to 981 nM.

B1: GST-NPR4 (natural protein)
chain: MAATAIEPSSSISFTSSHLSNPSPVVTTYHSAANLEELSSNLEQLLTNPDCDYTDAEIIIEEEANPVSVHRCVLAARSKFFLDLFKKDKDSSEKKPKYQMKDLLPYGNVGREAFLHFLSYIYTGRLKPFPIEVSTCVDSVCAHDSCKPAIDFAVELMYASFVFQIPDLVSSFQRKLRNYVEKSLVENVLPILLVAFHCDLTQLLDQCIERVARSDLDRFCIEKELPLEVLEKIKQLRVKSVNIPEVEDKSIERTGKVLKALDSDDVELVKLLLTESDITLDQANGLHYAVAYSDPKVVTQVLDLDMADVNFRNSRGYTVLHIAAMRREPTIIIPLIQKGANASDFTFDGRSAVNICRRLTRPKDYHTKTSRKEPSKYRLCIDILEREIRRNPLVSGDTPTCSHSMPEDLQMRLLYLEKRVGLAQLFFPAEANVAMDVANVEGTSECTGLLTPPPSNDTTENLGKVDLNETPYVQTKRMLTRMKALMKTVETGRRYFPSCYEVLDKYMDQYMDEEIPDMSYPEKGTVKERRQKRMRYNELKNDVKKAYSKDKVARSCLSSSSPASSLREALENPT
With B1, the binding result with His-MBP-NPR1 was “binds”.

B2: purified recombinant NPR4 protein (natural protein)
chain: B1 chain
The stoichiometry N is the number of molecules, sites or subunits per partner or assembly. Turning to B2, the “stoichiometry N” value in “SEC” was ~4.

Source of the values: publication PMC3376392 (Nature, 2012).
